Data on one molecule can be found in publication PMC10516938, “Conformational dynamics of cohesin/Scc2 loading complex are regulated by Smc3 acetylation and ATP binding” (Nature Communications, 2023).

For the test, the target named is T1, Smc3^E1155Q Q67C K1004C (S. cerevisiae, UniProt P47037 1-1230, Q67C | K1004C | E1155Q).
T1 construct: Smc3, S. cerevisiae, ATP hydrolysis mutant; source: S. cerevisiae W303, late G1 arrested cells, whole-cell extract
T1 sequence (looked up): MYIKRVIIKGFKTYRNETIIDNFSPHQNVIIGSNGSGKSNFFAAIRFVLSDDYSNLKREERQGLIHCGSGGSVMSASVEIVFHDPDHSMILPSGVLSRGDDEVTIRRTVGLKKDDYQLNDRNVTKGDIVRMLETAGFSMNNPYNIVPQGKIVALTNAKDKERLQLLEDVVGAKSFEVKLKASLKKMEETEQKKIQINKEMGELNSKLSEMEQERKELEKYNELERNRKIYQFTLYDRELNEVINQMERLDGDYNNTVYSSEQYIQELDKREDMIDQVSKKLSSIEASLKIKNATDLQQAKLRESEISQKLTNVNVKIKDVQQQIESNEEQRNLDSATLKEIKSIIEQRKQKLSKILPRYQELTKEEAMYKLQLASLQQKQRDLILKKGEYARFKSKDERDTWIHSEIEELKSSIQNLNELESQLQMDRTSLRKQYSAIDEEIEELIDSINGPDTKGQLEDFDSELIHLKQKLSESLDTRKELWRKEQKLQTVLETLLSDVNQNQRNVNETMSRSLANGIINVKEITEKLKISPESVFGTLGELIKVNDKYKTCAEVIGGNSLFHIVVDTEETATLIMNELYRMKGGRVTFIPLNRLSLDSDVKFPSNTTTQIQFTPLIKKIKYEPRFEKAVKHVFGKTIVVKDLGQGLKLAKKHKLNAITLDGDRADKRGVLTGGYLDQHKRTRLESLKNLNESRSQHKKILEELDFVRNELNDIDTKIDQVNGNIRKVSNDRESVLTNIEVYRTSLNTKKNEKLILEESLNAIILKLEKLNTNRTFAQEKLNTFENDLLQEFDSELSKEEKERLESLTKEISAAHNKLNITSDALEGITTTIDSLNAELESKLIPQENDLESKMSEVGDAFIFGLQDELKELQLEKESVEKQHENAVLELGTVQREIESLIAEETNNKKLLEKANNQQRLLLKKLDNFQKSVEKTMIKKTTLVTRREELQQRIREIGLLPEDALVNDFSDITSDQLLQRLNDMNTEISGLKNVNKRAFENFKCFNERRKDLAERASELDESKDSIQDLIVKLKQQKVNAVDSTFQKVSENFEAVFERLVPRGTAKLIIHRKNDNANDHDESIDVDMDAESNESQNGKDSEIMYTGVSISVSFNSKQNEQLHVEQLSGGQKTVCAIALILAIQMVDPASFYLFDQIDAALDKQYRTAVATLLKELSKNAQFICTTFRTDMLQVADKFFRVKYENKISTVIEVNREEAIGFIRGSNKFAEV
The test is described as follows: cross-linking; in vivo BMOE cross-link of cysteine pairs in yeast cells arrested in late G1 by non-degradable Sic1(9m); Scc1-PK immunoprecipitated, western blot, band intensities quantified. The note with it: partners not purified.

B1: Scc2 D369C T1175C (natural protein, S. cerevisiae, UniProt Q04002 1-1493, looked up)
chain: MSYPGKDKNIPGRIIEALEDLPLSYLVPKDGLAALVNAPMRVSLPFDKTIFTSADDGRDVNINVLGTANSTTSSIKNEAEKERLVFKRPSNFTSSANSVDYVPTNFLEGLSPLAQSVLSTHKGLNDSINIEKKSEIVSRPEAKHKLESVTSNAGNLSFNDNSSNKKTKTSTGVTMTQANLAEQYLNDLKNILDIVGFDQNSAEIGNIEYWLQLPNKKFVLTTNCLTKLQMTIKNITDNPQLSNSIEITWLLRLLDVMVCNIKFSKSSLKMGLDDSMLRYIALLSTIVLFNIFLLGKNDSNLHRESYIMEPVNFLSDLIESLKILTIEYGSLKIEFDTFQEALELLPKYIRNGPFLDDNVTAKLVYIFSCLLMNNDIEATTNIQFQSFWDNVKRISSDILVSLFGSFDQQRGFIIEELLSHIEKLPTKRIQKKLRKVGNQNIYITDFTFTLMSMLENINCYSFCNQMKDIAPENIDLLKNEYKKQEEFLFNIVEHINDTILERFFKNPSALRYVIDNFVQDLLLLISSPQWPVTEKILSSLLKRLLSVYSPSMQVSANIETICLQLIGNIGSTIFDIKCSTRDHEDNNLIKMINYPETLPHFFKSFEECIAYNETIKCRRSATRFLWNLRLGTILILEEYTKDAKEQIITVDNELKKILEQIKDGGLGPELENREADFSTIKLDYFSILHAFELLNLYDPYLKLILSLLAKDKIKLRSTAIKCLSMLASKDKVILSNPMVKETIHRRLNDSSASVKDAILDLVSINSSYFEFYQQINNNYNDDSIMVRKHVLRINEKMYDETNDIVTKVYVIARILMKIEDEEDNIIDMARLILLNRWILKVHEVLDQPEKLKEISSSVLLVMSRVAIMNEKCSQLFDLFLNFYLLNKEAHSKEAYDKITHVLTILTDFLVQKIVELNSDDTNEKNSIVDKQNFLNLLAKFADSTVSFLTKDHITALYPYMVSDEKSDFHYYILQVFRCTFEKLANFKQKFLYDLETTLLSRLPKMNVREIDEAMPLIWSVATHRHDTARVAKACSSCLSHLHPYINKANNEEAAIVVDGKLQRLIYLSTGFARFCFPKPSNDKIAFLQEGETLYEHITKCLLVLSKDKITHVIRRVAVKNLTKLCGNHPKLFNSRHVLHLLDKEFQSDQLDIKLVILESLYDLFLLEERKSVRNCGVNSTLSSNSILKKKLLKTNRVEFANDGVCSALATRFLDNILQLCLLRDLKNSLVAIRLLKLILKFGYTNPSHSIPTVIALFASTSQYIRHVAYELLEDLFEKYETLVFSSLSRGVTKAIHYSIHTDEKYYYKHDHFLSLLEKLCGTGKKNGPKFFKVLKRIMQSYLDDITDLTSTNSSVQKSIFVLCTNISNITFVSQYDLVSLLKTIDLTTDRLKEVIMDEIGDNVSSLSVSEEKLSGIILIQLSLQDLGTYLLHLYGLRDDVLLLDIVEESELKNKQLPAKKPDISKFSAQLENIEQYSSNGKLLTYFRKHVKDT
notes: Scc2, S. cerevisiae; source: S. cerevisiae W303, late G1 arrested cells, whole-cell extract
Take B1: the “double crosslink band relative to that of smc3 S72C K1004C E1155Q with scc2 E819C D369C” value is about 15%.
